Reference: patent US20250043302A1, “MUTATED HYDROXYPHENYLPYRUVATE DIOXYGENASE POLYPEPTIDE, AND CODING GENE AND USE THEREOF” (BEIJING DABEINONG BIOTECHNOLOGY CO., LTD., priority 2021, published 2025)
Numbering of substitutions follows the chain as printed. Numbers in names are those of the source.

B1: HvHPPDm-F372A-F383W-02: nucleotide sequence encoding Hordeum vulgare HPPD with F372A+F383W; vector DBN11765 (nucleic acid)
DNA: ATGCCGCCGACGCCCACCACCCCAGCAGCTACCGGAGCTGCGGCTGCAGTAACCCCTGAGCATGCTCGGCCCCACAGGATGGTGAGGTTTAATCCAAGATCAGATCGTTTTCATACACTCTCGTTCCACCATGTTGAGTTCTGGTGCGCCGACGCGGCTTCAGCGGCCGGGAGGTTCGCCTTCGCGCTGGGGGCCCCTCTTGCCGCGCGTAGTGATTTGTCTACTGGGAATTCAGCGCACGCGTCCCAGCTTCTCCGAAGCGGCAGTCTCGCCTTTCTCTTCACTGCACCATATGCAAATGGATGTGATGCAGCAACTGCTTCCCTGCCGAGCTTTTCTGCGGATGCCGCGAGGCGATTCAGTGCTGACCATGGGATCGCCGTCCGGTCAGTTGCTCTTAGAGTGGCTGATGCTGCTGAGGCATTCAGGGCTTCAAGGCGTCGTGGTGCACGCCCGGCGTTTGCCCCGGTTGATCTTGGGCGGGGGTTTGCTTTTGCAGAGGTGGAGCTGTACGGCGACGTGGTGCTCCGATTTGTTTCTCACCCGGACGGCACTGATGTGCCCTTCTTGCCAGGATTTGAAGGTGTGACCAACCCTGATGCCGTGGATTATGGACTCACAAGATTTGATCATGTGGTTGGCAATGTTCCTGAATTGGCACCTGCTGCCGCTTACATCGCAGGTTTTACTGGCTTCCATGAATTTGCTGAATTCACGGCGGAGGATGTTGGTACAACTGAGTCAGGGCTGAACAGTGTTGTTTTAGCCAACAACTCAGAAGGAGTTCTCCTTCCCTTGAATGAACCTGTTCATGGAACCAAGCGCCGCTCCCAAATTCAAACATTTCTTGAGCACCACGGCGGCCCTGGTGTTCAACATATTGCTGTCGCCTCTAGCGACGTCCTGCGTACATTACGCAAGATGAGGGCTCGGTCCGCAATGGGTGGTTTCGACTTCCTCCCTCCACCATTGCCAAAATATTATGAAGGCGTCAGAAGACTTGCAGGAGATGTCCTCTCTGAAGCTCAGATCAAGGAGTGCCAAGAACTTGGCGTCTTGGTTGATAGAGATGACCAAGGAGTACTTCTGCAGATAGCCACAAAACCCGTTGGTGACAGGCCAACTCTTTGGCTGGAGATGATTCAGAGAATTGGCTGCATGGAGAAAGATGAAAGAGGCGAGGAGTACCAGAAGGGTGGTTGTGGAGGCTTTGGAAAAGGAAACTTCTCAGAGCTGTTCAAGTCCATAGAAGATTACGAGAAAAGTCTAGAAGCCAAGCAGTCTGCTGCAGTGCAAGGTTCCTGA
modifications: HvHPPDm-F372A-F383W-02 Nucleotide Sequence
notes: vector DBN11765
B2: HvHPPDm-F372A-02: nucleotide sequence encoding Hordeum vulgare HPPD with F372A; vector DBN11763 (nucleic acid)
DNA: B1 DNA with G1130T, G1131C
modifications: HvHPPDm-F372A-02 Nucleotide Sequence
notes: vector DBN11763
B3: HvHPPDm-F383W-02: nucleotide sequence encoding Hordeum vulgare HPPD with F383W; vector DBN11764 (nucleic acid)
DNA: B1 DNA with G1096T, C1097T, C1098T
modifications: HvHPPDm-F383W-02 Nucleotide Sequence
notes: vector DBN11764

These molecules were tested on Arabidopsis thaliana T1 plants (assay: Topramezone tolerance of transgenic Arabidopsis thaliana T1 plants (spray, bleached leaf area grade, damage score)). Settings: number of plants; topramezone 25 g ai/ha (1×), 7 DAT; Table 4.
Type: in vivo
Outline: (§1)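 Damage graded 0–3 from the proportion of bleached leaf area 7 days after spraying. Plants were glufosinate-selected T1 lines, 18 days after sowing, plus vector and wild-type controls. Rates: mesotrione 52.5–420, isoxaflutole 35–280, topramezone 25–200 g ai/ha, with water (0×).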

Row | Molecule | Classification and statistics of the grade of pesticide damage: Grade 0 | Classification and statistics of the grade of pesticide damage: Grade 1 | Classification and statistics of the grade of pesticide damage: Grade 2 | Classification and statistics of the grade of pesticide damage: Grade 3
1 | B1 | 16 | 0 | 0 | 0
2 | B2 | 15 | 1 | 0 | 0
3 | B3 | 4 | 6 | 5 | 1

Same assay, conditions: number of plants; topramezone 100 g ai/ha (4×), 7 DAT; Table 4

Row | Molecule | Classification and statistics of the grade of pesticide damage: Grade 0 | Classification and statistics of the grade of pesticide damage: Grade 1 | Classification and statistics of the grade of pesticide damage: Grade 2 | Classification and statistics of the grade of pesticide damage: Grade 3
4 | B1 | 10 | 6 | 0 | 0
5 | B2 | 8 | 8 | 0 | 0
6 | B3 | 0 | 0 | 0 | 16

Same assay, conditions: pesticide damage score 0-100; topramezone 25 g ai/ha (1×), 7 DAT; Table 4

Row | Molecule | Scores
7 | B1 | 0
8 | B2 | 2
9 | B3 | 40

Same assay, conditions: pesticide damage score 0-100; topramezone 100 g ai/ha (4×), 7 DAT; Table 4

Row | Molecule | Scores
10 | B1 | 13
11 | B2 | 17
12 | B3 | 100

Same assay, conditions: topramezone 25 g ai/ha (1×), 7 DAT; Table 4

Row | Molecule | Resistance evaluation
13 | B1 | highly
14 | B2 | highly
15 | B3 | poorly

Same assay, conditions: topramezone 100 g ai/ha (4×), 7 DAT; Table 4

Row | Molecule | Resistance evaluation
16 | B1 | highly
17 | B2 | moderately
18 | B3 | non-resistant (non-resistant plants (scores 68-100))

Each molecule was assayed on Arabidopsis thaliana T1 plants (assay: Isoxaflutole tolerance of transgenic Arabidopsis thaliana T1 plants (spray, bleached leaf area grade, damage score)). Settings: isoxaflutole 35 g ai/ha (0.5x field concentration), spray, Arabidopsis thaliana T1 plants.
Type: in vivo
Design: Scores (pesticide damage): scale not given here
Outline: as §1

Row | Molecule | Resistance evaluation | Scores (pesticide damage)
19 | B1 | Moderately | 25
20 | B2 | Moderately | 33
21 | B3 | Poorly | 67

Same assay, conditions: isoxaflutole 35 g ai/ha (0.5x field concentration), spray, Arabidopsis thaliana T1 plants, 16 plants

Row | Molecule | Classification and statistics of the grade of pesticide damage: Grade 0 (number of plants) | Classification and statistics of the grade of pesticide damage: Grade 1 (number of plants) | Classification and statistics of the grade of pesticide damage: Grade 2 (number of plants) | Classification and statistics of the grade of pesticide damage: Grade 3 (number of plants)
22 | B1 | 4 | 12 | 0 | 0
23 | B2 | 1 | 14 | 1 | 0
24 | B3 | 0 | 1 | 14 | 1

Same assay, conditions: isoxaflutole 70 g ai/ha (1x field concentration), spray, Arabidopsis thaliana T1 plants

Row | Molecule | Resistance evaluation | Scores (pesticide damage)
25 | B1 | Moderately | 33
26 | B2 | Poorly | 44
27 | B3 | Non-resistant | 100

Same assay, conditions: isoxaflutole 70 g ai/ha (1x field concentration), spray, Arabidopsis thaliana T1 plants, 16 plants

Row | Molecule | Classification and statistics of the grade of pesticide damage: Grade 0 (number of plants) | Classification and statistics of the grade of pesticide damage: Grade 1 (number of plants) | Classification and statistics of the grade of pesticide damage: Grade 2 (number of plants) | Classification and statistics of the grade of pesticide damage: Grade 3 (number of plants)
28 | B1 | 1 | 14 | 1 | 0
29 | B2 | 0 | 12 | 3 | 1
30 | B3 | 0 | 0 | 0 | 16

Each molecule was assayed on Arabidopsis thaliana T1 plants (assay: Mesotrione tolerance of transgenic Arabidopsis thaliana T1 plants (spray, bleached leaf area grade, damage score)). Settings: mesotrione 52.5 g ai/ha; Arabidopsis thaliana T1 plants.
Type: in vivo
Design: Scores: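 damage score 0-100 computed as Σ(N×S)/(T×M)×100 over grades 0-3 with higher meaning more damage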
Outline: as §1

Row | Molecule | Resistance evaluation | Scores
31 | B1 | Highly resistant | 8
32 | B2 | Highly resistant | 15
33 | B3 | Moderately | 33

Same assay, conditions: mesotrione 52.5 g ai/ha; Arabidopsis thaliana T1 plants; 16 plants

Row | Molecule | Grade 0 (classification and statistics of the grade of pesticide damage; number of plants) | Grade 1 (classification and statistics of the grade of pesticide damage; number of plants) | Grade 2 (classification and statistics of the grade of pesticide damage; number of plants) | Grade 3 (classification and statistics of the grade of pesticide damage; number of plants)
34 | B1 | 12 | 4 | 0 | 0
35 | B2 | 9 | 7 | 0 | 0
36 | B3 | 2 | 12 | 2 | 0

Same assay, conditions: mesotrione 105 g ai/ha; Arabidopsis thaliana T1 plants

Row | Molecule | Resistance evaluation | Scores
37 | B1 | Moderately | 29
38 | B2 | Poorly resistant | 56
39 | B3 | Non-resistant | 100

Same assay, conditions: mesotrione 105 g ai/ha; Arabidopsis thaliana T1 plants; 16 plants

Row | Molecule | Grade 0 (classification and statistics of the grade of pesticide damage; number of plants) | Grade 1 (classification and statistics of the grade of pesticide damage; number of plants) | Grade 2 (classification and statistics of the grade of pesticide damage; number of plants) | Grade 3 (classification and statistics of the grade of pesticide damage; number of plants)
40 | B1 | 2 | 14 | 0 | 0
41 | B2 | 0 | 9 | 3 | 4
42 | B3 | 0 | 0 | 0 | 16
